Results taken from article PMC3252399.

T1: Ndc10 full-length (Kluyveromyces lactis, UniProt Q6CPM4 1-736)
T1 sequence: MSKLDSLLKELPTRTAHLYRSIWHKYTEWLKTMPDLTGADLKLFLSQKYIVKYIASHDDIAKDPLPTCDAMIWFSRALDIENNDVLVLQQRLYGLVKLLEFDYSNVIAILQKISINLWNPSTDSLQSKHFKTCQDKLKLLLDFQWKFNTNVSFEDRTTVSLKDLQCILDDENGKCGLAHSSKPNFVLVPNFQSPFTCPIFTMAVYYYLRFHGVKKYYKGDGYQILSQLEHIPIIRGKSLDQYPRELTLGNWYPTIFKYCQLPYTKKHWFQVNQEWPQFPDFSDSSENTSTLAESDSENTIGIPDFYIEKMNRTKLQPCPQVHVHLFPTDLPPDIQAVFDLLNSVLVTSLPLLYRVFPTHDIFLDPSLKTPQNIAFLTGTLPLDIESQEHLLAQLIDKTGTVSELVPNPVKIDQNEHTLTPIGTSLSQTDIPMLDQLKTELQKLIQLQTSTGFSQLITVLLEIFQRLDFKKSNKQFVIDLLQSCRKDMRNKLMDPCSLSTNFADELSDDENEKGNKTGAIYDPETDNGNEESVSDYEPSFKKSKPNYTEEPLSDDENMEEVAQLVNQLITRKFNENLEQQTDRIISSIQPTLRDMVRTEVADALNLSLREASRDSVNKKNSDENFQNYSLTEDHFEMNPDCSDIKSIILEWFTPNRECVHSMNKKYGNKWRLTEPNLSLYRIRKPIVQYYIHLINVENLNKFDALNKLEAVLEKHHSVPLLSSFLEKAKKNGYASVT

T2: Ndc10 DI-III (Kluyveromyces lactis, UniProt Q6CPM4 1-534)
T2 sequence: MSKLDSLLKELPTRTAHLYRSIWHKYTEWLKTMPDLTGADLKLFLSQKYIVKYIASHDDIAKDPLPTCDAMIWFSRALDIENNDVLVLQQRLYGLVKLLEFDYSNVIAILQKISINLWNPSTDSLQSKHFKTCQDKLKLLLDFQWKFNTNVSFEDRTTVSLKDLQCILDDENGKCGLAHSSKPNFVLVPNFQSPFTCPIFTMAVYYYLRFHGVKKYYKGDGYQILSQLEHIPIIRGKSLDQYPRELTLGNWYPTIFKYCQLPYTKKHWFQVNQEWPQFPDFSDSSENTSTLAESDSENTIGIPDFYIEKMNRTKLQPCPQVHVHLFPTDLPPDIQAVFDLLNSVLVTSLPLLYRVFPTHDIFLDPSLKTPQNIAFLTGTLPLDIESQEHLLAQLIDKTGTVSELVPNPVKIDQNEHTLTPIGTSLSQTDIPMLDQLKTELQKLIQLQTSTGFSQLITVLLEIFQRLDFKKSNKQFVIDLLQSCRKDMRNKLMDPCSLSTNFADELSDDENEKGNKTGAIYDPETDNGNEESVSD

T3: Ndc10 DI-II (Kluyveromyces lactis, UniProt Q6CPM4 1-403)
T3 sequence: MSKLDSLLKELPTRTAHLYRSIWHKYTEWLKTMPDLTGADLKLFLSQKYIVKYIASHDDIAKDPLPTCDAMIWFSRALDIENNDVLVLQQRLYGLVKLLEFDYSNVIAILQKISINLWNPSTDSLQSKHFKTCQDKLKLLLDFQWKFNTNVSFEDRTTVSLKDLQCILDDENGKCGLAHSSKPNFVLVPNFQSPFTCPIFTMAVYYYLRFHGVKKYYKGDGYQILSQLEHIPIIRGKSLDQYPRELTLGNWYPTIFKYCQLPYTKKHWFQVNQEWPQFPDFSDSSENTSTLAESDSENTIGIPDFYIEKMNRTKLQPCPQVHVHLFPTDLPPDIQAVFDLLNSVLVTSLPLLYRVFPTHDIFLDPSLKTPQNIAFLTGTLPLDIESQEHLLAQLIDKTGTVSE

T4: Ndc10 DV (Kluyveromyces lactis, UniProt Q6CPM4 631-736)
T4 sequence: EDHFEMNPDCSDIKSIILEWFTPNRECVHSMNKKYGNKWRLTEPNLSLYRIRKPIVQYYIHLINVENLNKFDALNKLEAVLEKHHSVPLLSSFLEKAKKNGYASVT


Tests used:
[1] = target: K. lactis Ndc10 DI–III (residues 1–534), purified (Kluyveromyces lactis); experiment: AUC
[2] = target: T1, Ndc10 full-length; experiment: fluorescence anisotropy
[3] = target: T2, Ndc10 DI-III; experiment: EMSA
[4] = target: T3, Ndc10 DI-II; experiment: ITC
[5] = target: T4, Ndc10 DV; experiment: EMSA

| Molecule | stoichiometry N [1] | binding result [2] | binding result [3] | binding result [4] | binding result [5] |
| --- | --- | --- | --- | --- | --- |
| K. lactis Ndc10 DI–III (residues 1–534), purified (domain or fragment) | 2 | – | – | – | – |
| 30 bp CEN1 CDEIII (dsDNA) DNA 1: TGCTTTATGTTTCCGAAAATTATTTTATTA DNA 2: TAATAAAATAATTTTCGGAAACATAAAGCA | – | binds | binds | binds | no binding |
